B1: SAP102 PDZ 3 subcloned into yeast vector pPC 86 (other, UniProt Q62936 404-484, looked up, not shown: large carriers)
chain: KIILHKGSTGLGFNIVGGEDGEGIFVSFILAGGPADLSGELRRGDRILSVNGVNLRNATHEQAAAALKRAGQSVTIVAQYR
notes: domain: PDZ 3; Limits of the pPC86 construct are not restated; the bait construct of the same domain covers 367 to 452; also called third PDZ domain of SAP102
B2: GluR1 subunit of rat brain (endogenous) (receptor, UniProt P19490 19-907, looked up)
chain: ANFPNNIQIGGLFPNQQSQEHAAFRFALSQLTEPPKLLPQIDIVNISDSFEMTYRFCSQFSKGVYAIFGFYERRTVNMLTSFCGALHVCFITPSFPVDTSNQFVLQLRPELQEALISIIDHYKWQTFVYIYDADRGLSVLQRVLDTAAEKNWQVTAVNILTTTEEGYRMLFQDLEKKKERLVVVDCESERLNAILGQIVKLEKNGIGYHYILANLGFMDIDLNKFKESGANVTGFQLVNYTDTIPARIMQQWRTSDSRDHTRVDWKRPKYTSALTYDGVKVMAEAFQSLRRQRIDISRRGNAGDCLANPAVPWGQGIDIQRALQQVRFEGLTGNVQFNEKGRRTNYTLHVIEMKHDGIRKIGYWNEDDKFVPAATDAQAGGDNSSVQNRTYIVTTILEDPYVMLKKNANQFEGNDRYEGYCVELAAEIAKHVGYSYRLEIVSDGKYGARDPDTKAWNGMVGELVYGRADVAVAPLTITLVREEVIDFSKPFMSLGISIMIKKPQKSKPGVFSFLDPLAYEIWMCIVFAYIGVSVVLFLVSRFSPYEWHSEEFEEGRDQTTSDQSNEFGIFNSLWFSLGAFMQQGCDISPRSLSGRIVGGVWWFFTLIIISSYTANLAAFLTVERMVSPIESAEDLAKQTEIAYGTLEAGSTKEFFRRSKIAVFEKMWTYMKSAEPSVFVRTTEEGMIRVRKSKGKYAYLLESTMNEYIEQRKPCDTMKVGGNLDSKGYGIATPKGSALRNPVNLAVLKLNEQGLLDKLKNKWWYDKGECGSGGGDSKDKTSALSLSNVAGVFYILIGGLGLAMLVALIEFCYKSRSESKRMKGFCLIPQQSINEAIRTSTLPRNSGAGASGGGGSGENGRVVSQDFPKSMQSIPCMSHSSGMPLGATGL
notes: also called NMDA receptor GluR1 subunit (so in the source)

Columns and labels:
[1] = molecular target: T1, SYNGAP deletion mutant 894 to 1134 (-QTR*) (rat, UniProt Q9QUH6 1067-1307); assay: yeast two-hybrid, HIS3 growth without leucine, tryptophan and histidine in 100 mM 3-aminotriazole
T1 construct: PCR generated deletion mutant, ends in -QTR; not shown: The GAL4 two-hybrid fusion domain and its junction residues
T1 sequence: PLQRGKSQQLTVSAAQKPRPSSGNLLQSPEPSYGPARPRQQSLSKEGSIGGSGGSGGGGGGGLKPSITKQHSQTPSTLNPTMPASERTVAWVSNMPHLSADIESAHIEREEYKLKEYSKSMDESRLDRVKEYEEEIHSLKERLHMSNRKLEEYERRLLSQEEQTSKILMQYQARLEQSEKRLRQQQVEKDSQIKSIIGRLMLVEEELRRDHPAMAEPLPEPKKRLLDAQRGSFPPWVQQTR
Text: (§1) The PDZ domains of PSD-95/SAP90 and SAP102 were amplified by PCR and subcloned into the yeast vector, pPC 86. PDZ domain 1 of PSD-95 covers the amino acids from 40 to 160; PDZ domain 2, from 156 to 248; and PDZ domain 3, from 298 to 403. See e.g., Cho et al., (1992) Neuron 9:929 for disclosure relating to the PSD-95 sequence.

[2] = molecular target: T2, SYNGAP deletion mutant 894 to 1132 (-Q*) (rat, UniProt Q9QUH6 1067-1305); assay: as above
T2 construct: PCR generated deletion mutant, ends in -Q; not shown: The GAL4 two-hybrid fusion domain and its junction residues
T2 sequence: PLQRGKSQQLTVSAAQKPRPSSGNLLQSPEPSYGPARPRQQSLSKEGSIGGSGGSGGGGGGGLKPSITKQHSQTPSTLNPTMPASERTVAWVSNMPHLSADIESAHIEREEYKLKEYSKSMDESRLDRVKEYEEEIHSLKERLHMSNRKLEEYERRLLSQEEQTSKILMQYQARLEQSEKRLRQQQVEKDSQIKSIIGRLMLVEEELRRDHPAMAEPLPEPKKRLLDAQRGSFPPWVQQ
Text: as §1

[3] = molecular target: T3, SYNGAP of rat brain (endogenous) (rat, UniProt Q9QUH6 174-1308, limits assumed); assay: coimmunoprecipitation from deoxycholate solubilized rat brain membranes, immunoblot
T3 construct: Native protein in brain homogenates, deoxycholate extracts of brain membranes and cultured hippocampal neurons; runs as a doublet or triplet, so the isoform is not certain; also called 130 kDa protein in brain; doublet or triplet of proteins at 130 kDa
T3 sequence: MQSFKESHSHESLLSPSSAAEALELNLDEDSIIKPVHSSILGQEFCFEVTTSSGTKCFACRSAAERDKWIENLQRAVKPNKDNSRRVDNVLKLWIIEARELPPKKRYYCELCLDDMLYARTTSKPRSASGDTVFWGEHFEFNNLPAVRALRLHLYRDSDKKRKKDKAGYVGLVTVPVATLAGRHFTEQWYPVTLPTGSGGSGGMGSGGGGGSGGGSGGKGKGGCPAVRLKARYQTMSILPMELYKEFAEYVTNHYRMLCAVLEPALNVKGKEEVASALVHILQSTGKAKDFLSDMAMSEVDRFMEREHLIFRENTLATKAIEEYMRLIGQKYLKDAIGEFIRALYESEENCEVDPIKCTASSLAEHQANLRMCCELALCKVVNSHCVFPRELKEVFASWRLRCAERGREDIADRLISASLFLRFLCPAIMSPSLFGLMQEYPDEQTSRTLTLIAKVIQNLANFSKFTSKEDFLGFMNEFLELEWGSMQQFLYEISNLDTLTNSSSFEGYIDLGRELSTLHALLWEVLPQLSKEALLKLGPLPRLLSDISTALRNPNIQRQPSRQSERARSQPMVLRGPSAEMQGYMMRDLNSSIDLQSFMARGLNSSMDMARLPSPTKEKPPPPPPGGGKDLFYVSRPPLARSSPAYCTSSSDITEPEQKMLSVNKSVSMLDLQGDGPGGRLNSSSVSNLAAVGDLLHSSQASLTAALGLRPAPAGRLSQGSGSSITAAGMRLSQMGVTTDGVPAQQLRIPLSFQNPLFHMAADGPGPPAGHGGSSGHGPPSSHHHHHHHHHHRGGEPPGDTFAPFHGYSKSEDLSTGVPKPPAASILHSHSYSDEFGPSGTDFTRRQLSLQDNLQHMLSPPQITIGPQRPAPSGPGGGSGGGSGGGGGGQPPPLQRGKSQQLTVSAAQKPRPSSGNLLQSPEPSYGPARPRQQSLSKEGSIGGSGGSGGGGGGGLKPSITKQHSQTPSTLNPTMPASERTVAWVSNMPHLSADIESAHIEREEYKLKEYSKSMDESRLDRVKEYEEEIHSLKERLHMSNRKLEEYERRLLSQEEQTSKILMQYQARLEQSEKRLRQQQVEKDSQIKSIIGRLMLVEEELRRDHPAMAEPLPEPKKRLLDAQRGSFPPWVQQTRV
Method: Cortex and hippocampus from a male Sprague-Dawley rat, age of 4 to 6 weeks were homogenized twice using a glass-Teflon homogenizer with protease inhibitors (antipain, chymotrypsin, leupeptin, Trasylol, 0.1 mM PMSF). After determining the protein concentration of the P2 fraction by a Coomasie assay (Pierce), aliquots of the proteins at 3 mg/ml were stored at −80° C. until use. For coimmunoprecipitation, PA (300 μg per IP) was solubilized by 1.0% sodium deoxycholate followed by 0.1% Triton X-100 and the preparation was centrifuged for 10 minutes at 100,000×g. The supernatant was then used for coimmunoprecipitation.
The clarified supernatant of solubilized P2 fraction was then added to the sepharose beads and the mixture incubated for 2 to 3 hours at 4° C. […] When the antibodies were blocked with antigens, they were preincubated with the peptide at concentration of 100 µg/ml or fusion proteins at concentration of 50 µg/ml.

Binder	binding result [1]	binding result [2]	binding result [3]
B1	no binding	no binding	–
B2	–	–	no binding
